Square brackets hold non-standard residues; d marks the D form. Peptide text beside a SMILES is read from it. * marks the point of attachment. X3 = O=C(CCCCCNCc1nc2c(sc3cc(Br)cnc32)c(=O)[nH]1)*
What was measured:
Test in all cases: Kinase profiling (radiometric filter-binding)
Type in all cases: biochemical
CHK1 = target: T1, CHK1 (Homo sapiens, UniProt O14757); conditions: CHK1, 1 µM inhibitor; read-out: Residual activity, %
T1 sequence (O14757 1-476): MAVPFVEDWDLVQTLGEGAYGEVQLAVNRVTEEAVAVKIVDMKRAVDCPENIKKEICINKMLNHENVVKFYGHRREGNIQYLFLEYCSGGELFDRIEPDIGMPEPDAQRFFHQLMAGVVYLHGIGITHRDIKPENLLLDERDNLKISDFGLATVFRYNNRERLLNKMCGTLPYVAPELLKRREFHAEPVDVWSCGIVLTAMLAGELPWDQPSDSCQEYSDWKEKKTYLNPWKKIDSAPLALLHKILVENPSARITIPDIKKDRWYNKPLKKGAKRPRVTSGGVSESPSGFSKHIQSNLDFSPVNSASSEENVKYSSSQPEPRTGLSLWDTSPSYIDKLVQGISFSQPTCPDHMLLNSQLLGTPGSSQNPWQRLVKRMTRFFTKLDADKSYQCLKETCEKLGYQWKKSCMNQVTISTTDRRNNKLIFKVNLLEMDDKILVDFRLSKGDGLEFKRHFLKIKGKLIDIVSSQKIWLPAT
Procedure: (§1) Kinase selectivity profiling was performed using the commercial service provided by the MRC PPU International Centre for Kinase Profiling (Dundee, UK) using a radiometric filter-binding assay. Kinases used for analysis were of human origin. The ATP concentration applied for inhibition measurements was at or below the ATP KM value of the particular PK. ARC-3125 and ARC-3126 were screened against 139 PKs, whereas compounds 1, 2, and 8 were screened against 140 PKs. The final total concentration of inhibitors in the selectivity panel was 1 µM. Residual activities were expressed as the percentage of retained activity compared to the control without inhibitor.

DYRK3 = target: T2, DYRK3 (Homo sapiens, UniProt O43781); conditions: DYRK3, 1 µM inhibitor; read-out: Residual activity, %
T2 sequence (O43781 1-588): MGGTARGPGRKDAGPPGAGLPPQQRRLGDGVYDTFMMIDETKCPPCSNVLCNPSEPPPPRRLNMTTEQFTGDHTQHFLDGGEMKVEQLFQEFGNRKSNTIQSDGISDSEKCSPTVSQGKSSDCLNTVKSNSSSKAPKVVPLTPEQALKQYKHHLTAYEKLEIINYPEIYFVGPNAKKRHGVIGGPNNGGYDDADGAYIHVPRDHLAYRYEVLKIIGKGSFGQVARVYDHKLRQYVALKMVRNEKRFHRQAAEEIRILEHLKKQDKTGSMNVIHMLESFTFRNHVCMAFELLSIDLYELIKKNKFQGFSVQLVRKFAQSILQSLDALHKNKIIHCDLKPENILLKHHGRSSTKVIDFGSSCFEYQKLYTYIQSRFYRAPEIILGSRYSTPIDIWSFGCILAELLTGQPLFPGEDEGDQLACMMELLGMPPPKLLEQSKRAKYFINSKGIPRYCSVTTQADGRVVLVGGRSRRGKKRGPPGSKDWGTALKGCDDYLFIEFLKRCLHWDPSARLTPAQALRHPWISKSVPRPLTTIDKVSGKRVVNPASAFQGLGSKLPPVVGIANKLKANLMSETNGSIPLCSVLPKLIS
Procedure: as §1

ERK8 = target: T3, ERK8 (Homo sapiens, UniProt Q8TD08); conditions: ERK8, 1 µM inhibitor; read-out: Residual activity, %
T3 sequence (Q8TD08 1-544): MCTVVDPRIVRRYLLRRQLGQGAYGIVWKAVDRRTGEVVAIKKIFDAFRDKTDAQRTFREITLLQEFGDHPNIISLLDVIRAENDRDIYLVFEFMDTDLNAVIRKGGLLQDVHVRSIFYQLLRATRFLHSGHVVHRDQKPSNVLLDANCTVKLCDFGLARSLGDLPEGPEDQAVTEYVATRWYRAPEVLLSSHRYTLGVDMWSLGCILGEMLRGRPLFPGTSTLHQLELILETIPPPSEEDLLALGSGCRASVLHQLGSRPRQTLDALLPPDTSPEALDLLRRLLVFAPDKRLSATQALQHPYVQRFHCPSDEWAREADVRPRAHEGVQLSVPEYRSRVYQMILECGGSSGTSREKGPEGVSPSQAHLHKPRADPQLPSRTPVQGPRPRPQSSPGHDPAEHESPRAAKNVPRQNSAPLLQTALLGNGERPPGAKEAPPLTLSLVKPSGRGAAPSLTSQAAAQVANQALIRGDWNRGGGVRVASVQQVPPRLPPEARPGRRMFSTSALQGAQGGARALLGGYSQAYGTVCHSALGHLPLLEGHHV
Procedure: as §1

MEKK1 = MEKK1 (Homo sapiens, UniProt Q13233); conditions: MEKK1, 1 µM inhibitor; read-out: Residual activity, %
MEKK1, sequence (Q13233 whole entry): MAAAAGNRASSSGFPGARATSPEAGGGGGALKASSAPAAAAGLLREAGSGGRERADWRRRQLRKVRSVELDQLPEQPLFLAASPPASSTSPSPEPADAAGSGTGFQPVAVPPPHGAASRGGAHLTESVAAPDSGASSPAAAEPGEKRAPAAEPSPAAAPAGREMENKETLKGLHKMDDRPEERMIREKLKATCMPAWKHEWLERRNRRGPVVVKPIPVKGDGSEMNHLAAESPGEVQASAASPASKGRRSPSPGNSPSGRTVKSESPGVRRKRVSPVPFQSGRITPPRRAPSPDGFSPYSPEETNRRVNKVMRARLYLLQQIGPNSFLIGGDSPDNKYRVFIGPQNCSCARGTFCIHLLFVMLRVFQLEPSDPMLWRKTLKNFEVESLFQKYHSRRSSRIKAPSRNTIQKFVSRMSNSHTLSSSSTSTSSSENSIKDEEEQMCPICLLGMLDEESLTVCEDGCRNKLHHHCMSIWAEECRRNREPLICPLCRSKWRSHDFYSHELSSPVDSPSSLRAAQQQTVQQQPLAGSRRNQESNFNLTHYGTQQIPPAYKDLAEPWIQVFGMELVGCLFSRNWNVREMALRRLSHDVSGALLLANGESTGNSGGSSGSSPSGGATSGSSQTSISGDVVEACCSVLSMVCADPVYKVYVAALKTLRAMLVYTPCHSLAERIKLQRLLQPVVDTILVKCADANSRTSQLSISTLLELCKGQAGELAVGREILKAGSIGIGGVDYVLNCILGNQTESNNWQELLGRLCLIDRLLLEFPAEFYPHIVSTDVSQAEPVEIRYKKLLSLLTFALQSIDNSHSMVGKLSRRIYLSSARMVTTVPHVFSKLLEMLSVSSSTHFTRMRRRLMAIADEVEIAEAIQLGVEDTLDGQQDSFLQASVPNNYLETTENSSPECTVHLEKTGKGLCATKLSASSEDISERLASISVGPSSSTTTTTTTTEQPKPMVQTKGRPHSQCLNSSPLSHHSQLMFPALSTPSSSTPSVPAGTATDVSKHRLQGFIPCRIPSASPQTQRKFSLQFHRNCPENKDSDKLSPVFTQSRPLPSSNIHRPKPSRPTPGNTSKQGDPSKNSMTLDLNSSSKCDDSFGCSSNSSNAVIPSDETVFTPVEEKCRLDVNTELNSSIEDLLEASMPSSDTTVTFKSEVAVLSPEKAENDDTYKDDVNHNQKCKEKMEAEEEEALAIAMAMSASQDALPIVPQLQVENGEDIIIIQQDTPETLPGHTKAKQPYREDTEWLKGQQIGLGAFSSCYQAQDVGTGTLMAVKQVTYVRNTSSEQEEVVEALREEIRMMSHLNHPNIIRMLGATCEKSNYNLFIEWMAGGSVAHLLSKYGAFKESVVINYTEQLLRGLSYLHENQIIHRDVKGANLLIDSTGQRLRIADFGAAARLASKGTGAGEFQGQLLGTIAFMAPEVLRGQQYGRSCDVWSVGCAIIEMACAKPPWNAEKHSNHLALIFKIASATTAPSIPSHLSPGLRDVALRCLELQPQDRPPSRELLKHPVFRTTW
Procedure: as §1

PHK = PHK (Homo sapiens, UniProt Q16816); conditions: 1 µM inhibitor, read-out: Residual activity, %
PHK, sequence (Q16816 whole entry): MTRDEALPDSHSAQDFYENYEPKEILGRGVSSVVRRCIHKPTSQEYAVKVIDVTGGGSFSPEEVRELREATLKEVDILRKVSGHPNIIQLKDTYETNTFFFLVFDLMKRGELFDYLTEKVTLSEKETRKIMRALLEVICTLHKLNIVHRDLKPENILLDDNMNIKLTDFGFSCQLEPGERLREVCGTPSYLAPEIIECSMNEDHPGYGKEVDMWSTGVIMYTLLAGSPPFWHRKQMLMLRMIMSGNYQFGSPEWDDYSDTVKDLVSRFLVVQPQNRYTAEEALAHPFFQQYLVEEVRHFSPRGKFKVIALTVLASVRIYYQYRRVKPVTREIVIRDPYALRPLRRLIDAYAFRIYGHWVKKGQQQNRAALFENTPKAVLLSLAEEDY
Procedure: as §1

PRK2 = PRK2 (Homo sapiens, UniProt Q16513); conditions: PRK2, 1 µM inhibitor; read-out: Residual activity, %
PRK2, sequence (Q16513 whole entry): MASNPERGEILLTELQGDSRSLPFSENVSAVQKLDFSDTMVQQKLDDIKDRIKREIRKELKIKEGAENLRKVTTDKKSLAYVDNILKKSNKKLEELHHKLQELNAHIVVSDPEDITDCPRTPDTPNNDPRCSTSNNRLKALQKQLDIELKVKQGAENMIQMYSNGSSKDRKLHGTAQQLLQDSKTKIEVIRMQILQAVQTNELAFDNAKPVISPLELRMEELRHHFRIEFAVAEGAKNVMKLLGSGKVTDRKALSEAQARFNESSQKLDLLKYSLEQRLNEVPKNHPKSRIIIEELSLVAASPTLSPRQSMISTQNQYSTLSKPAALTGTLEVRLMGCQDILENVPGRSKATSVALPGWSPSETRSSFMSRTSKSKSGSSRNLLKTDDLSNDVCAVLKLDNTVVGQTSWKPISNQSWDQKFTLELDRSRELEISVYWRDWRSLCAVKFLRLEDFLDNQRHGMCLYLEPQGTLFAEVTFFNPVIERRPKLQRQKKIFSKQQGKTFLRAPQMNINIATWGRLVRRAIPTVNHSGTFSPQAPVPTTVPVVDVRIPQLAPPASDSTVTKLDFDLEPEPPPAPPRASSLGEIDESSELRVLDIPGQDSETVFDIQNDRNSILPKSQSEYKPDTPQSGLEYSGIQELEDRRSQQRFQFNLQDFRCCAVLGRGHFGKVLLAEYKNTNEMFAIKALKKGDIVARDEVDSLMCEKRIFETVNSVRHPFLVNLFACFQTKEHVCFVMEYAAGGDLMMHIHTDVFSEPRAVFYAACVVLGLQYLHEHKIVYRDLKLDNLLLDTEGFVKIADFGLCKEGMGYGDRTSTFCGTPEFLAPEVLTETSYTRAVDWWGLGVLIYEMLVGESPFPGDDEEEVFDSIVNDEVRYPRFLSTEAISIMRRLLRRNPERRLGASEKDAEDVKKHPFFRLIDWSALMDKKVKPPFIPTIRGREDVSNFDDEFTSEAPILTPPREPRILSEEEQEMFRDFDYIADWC
Procedure: as §1

TLK1 = target: T4, TLK1 (Homo sapiens, UniProt Q9UKI8); conditions: TLK1, 1 µM inhibitor; read-out: Residual activity, %
T4 sequence (Q9UKI8 1-766): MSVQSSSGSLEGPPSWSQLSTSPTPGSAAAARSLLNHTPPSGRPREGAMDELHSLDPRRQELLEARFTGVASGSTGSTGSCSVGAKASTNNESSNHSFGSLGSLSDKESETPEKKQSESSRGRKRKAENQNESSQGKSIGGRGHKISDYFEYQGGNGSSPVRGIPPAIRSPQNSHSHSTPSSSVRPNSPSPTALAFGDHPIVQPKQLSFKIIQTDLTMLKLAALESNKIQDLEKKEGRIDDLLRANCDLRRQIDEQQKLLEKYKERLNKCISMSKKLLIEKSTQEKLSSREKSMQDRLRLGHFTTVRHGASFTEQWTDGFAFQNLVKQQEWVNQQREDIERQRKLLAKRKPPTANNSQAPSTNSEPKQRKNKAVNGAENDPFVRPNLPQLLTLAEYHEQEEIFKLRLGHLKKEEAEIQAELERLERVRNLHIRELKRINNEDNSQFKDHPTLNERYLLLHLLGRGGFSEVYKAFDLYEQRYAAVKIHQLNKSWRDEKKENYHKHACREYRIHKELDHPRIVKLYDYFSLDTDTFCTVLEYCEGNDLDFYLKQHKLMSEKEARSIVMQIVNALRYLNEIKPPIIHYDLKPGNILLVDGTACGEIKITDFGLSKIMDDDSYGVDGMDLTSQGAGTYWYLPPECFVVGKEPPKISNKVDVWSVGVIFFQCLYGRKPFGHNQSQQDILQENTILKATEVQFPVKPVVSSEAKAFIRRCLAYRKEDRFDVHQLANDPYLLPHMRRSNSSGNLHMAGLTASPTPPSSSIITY
Procedure: as §1

SMILES	remaining activity at 1 µM (CHK1) [%]	remaining activity at 1 µM (DYRK3) [%]	remaining activity at 1 µM (ERK8) [%]	remaining activity at 1 µM (MEKK1) [%]	remaining activity at 1 µM (PHK) [%]	remaining activity at 1 µM (PRK2) [%]	remaining activity at 1 µM (TLK1) [%]
N=C(N)NCCC[C@@H](NC(=O)CCCCCNC(=O)Cn1cnc2c(I)c(I)c(I)c(I)c21)C(=O)N[C@H](CCCNC(=N)N)C(=O)N[C@H](CCCNC(=N)N)C(=O)N[C@H](CCCNC(=N)N)C(=O)N[C@H](CCCNC(=N)N)C(=O)N[C@H](CCCNC(=N)N)C(=O)N[C@H](CCCCN)C(N)=O [ARC-3125, TIBI-CH2-C(=O)-Ahx-(D-Arg)6-D-Lys-NH2]	76 ± 1	22 ± 2	18 ± 9	77 ± 1	104 ± 11	16 ± 6	78 ± 1
N=C(N)NCCC[C@@H](NC(=O)CNC(=O)[C@@H](CCCNC(=N)N)NC(=O)[C@@H](CCCNC(=N)N)NC(=O)CCCCCCCNCc1nc2c(sc3cc(Br)cnc32)c(=O)[nH]1)C(=O)N[C@H](CCCCN)C(N)=O [Compound 1, BPTP-Aoc-(D-Arg)2-Gly-D-Arg-D-Lys-NH2]	122 ± 17	43 ± 6	109 ± 8	108 ± 16	109 ± 3	92 ± 2	118 ± 1
N=C(N)NCCC[C@@H](NC(=O)CCCCCNCc1nc2c(sc3cc(Br)cnc32)c(=O)[nH]1)C(=O)N[C@H](CCCNC(=N)N)C(=O)N[C@H](CCCNC(=N)N)C(=O)N[C@H](CCCNC(=N)N)C(=O)N[C@H](CCCNC(=N)N)C(=O)N[C@H](CCCNC(=N)N)C(=O)N[C@H](CCCCN)C(N)=O [ARC-3126, BPTP-Ahx-(D-Arg)6-D-Lys-NH2] (X3-[dR][dR][dR][dR][dR][dR][dK]-NH2)	100 ± 6	82 ± 1	49 ± 30	103 ± 2	128 ± 10	58 ± 15	91 ± 10
N=C(N)NCCC[C@@H](NC(=O)CNC(=O)[C@@H](CCCNC(=N)N)NC(=O)[C@@H](CCCNC(=N)N)NC(=O)Cn1cc(CNCc2nc3c(sc4ccc(Br)cc43)c(=O)[nH]2)nn1)C(=O)N[C@H](CCCCN)C(N)=O [Compound 3, BBTP-Amt-(D-Arg)2-Gly-D-Arg-D-Lys-NH2]	104 ± 2	55 ± 4	83 ± 2	98 ± 2	78 ± 6	67 ± 4	109 ± 10
N=C(N)NCCC[C@@H](NC(=O)CNC(=O)[C@@H](CCCNC(=N)N)NC(=O)[C@@H](CCCNC(=N)N)NC(=O)CCCCCCCNCc1nc2c(sc3ccc(Br)cc32)c(=O)[nH]1)C(=O)N[C@H](CCCCN)C(N)=O [Compound 2, BBTP-Aoc-(D-Arg)2-Gly-D-Arg-D-Lys-NH2]	112 ± 6	34 ± 2	78 ± 17	119 ± 5	98 ± 4	94 ± 12	122 ± 9

Reference: paper PMC8307404, “Crystal Structure-Guided Design of Bisubstrate Inhibitors and Photoluminescent Probes for Protein Kinases of the PIM Family” (Molecules, 2021)
